Measured values reported in patent US11795460B2, “Compositions and methods for TTR gene editing and treating ATTR amyloidosis” (Intellia Therapeutics, Inc., priority 2017, dated 2023).
Strand notation (5' to 3'): a small letter for the sugar, then the base; units joined by * are phosphorothioate-linked, units joined directly phosphodiester-linked; [ ] holds rarer units or linkages, { } end groups; capitals alone tell only the bases. m = 2'-O-methyl; r = 2'-OH (RNA)

B1: G000497: TTR sgRNA modified sequence, Human, SEQ ID No. 104; guide sequence of CR003335 (nucleic acid)
guide: mC*mU*mG*rCrUrCrCrUrCrCrUrCrUrGrCrCrUrUrGrCrGrUrUrUrUrArGrAmGmCmUmAmGmAmAmAmUmAmGmCrArArGrUrUrArArArArUrArArGrGrCrUrArGrUrCrCrGrUrUrArUrCrAmAmCmUmUmGmAmAmAmAmAmGmUmGmGmCmAmCmCmGmAmGmUmCmGmGmUmGmCmU*mU*mU*mU
B2: G000490: TTR sgRNA modified sequence, Human, SEQ ID No. 97; guide sequence of CR003366 (nucleic acid)
guide: mA*mA*mA*rUrArGrArCrArCrCrArArArUrCrUrUrArCrGrUrUrUrUrArGrAmGmCmUmAmGmAmAmAmUmAmGmCrArArGrUrUrArArArArUrArArGrGrCrUrArGrUrCrCrGrUrUrArUrCrAmAmCmUmUmGmAmAmAmAmAmGmUmGmGmCmAmCmCmGmAmGmUmCmGmGmUmGmCmU*mU*mU*mU
B3: G000485: TTR sgRNA modified sequence, Human, SEQ ID No. 92; guide sequence of CR003336 (nucleic acid)
guide: mC*mC*mU*rCrCrUrCrUrGrCrCrUrUrGrCrUrGrGrArCrGrUrUrUrUrArGrAmGmCmUmAmGmAmAmAmUmAmGmCrArArGrUrUrArArArArUrArArGrGrCrUrArGrUrCrCrGrUrUrArUrCrAmAmCmUmUmGmAmAmAmAmAmGmUmGmGmCmAmCmCmGmAmGmUmCmGmGmUmGmCmU*mU*mU*mU
B4: G000500: TTR sgRNA modified sequence, Human, SEQ ID No. 107; guide sequence of CR003337 (nucleic acid)
guide: mC*mC*mA*rGrUrCrCrArGrCrArArGrGrCrArGrArGrGrGrUrUrUrUrArGrAmGmCmUmAmGmAmAmAmUmAmGmCrArArGrUrUrArArArArUrArArGrGrCrUrArGrUrCrCrGrUrUrArUrCrAmAmCmUmUmGmAmAmAmAmAmGmUmGmGmCmAmCmCmGmAmGmUmCmGmGmUmGmCmU*mU*mU*mU
B5: G000496: TTR sgRNA modified sequence, Human, SEQ ID No. 103; guide sequence of CR005304 (nucleic acid)
guide: mG*mG*mC*rCrGrUrGrCrArUrGrUrGrUrUrCrArGrArArGrUrUrUrUrArGrAmGmCmUmAmGmAmAmAmUmAmGmCrArArGrUrUrArArArArUrArArGrGrCrUrArGrUrCrCrGrUrUrArUrCrAmAmCmUmUmGmAmAmAmAmAmGmUmGmGmCmAmCmCmGmAmGmUmCmGmGmUmGmCmU*mU*mU*mU
B6: G000483: TTR sgRNA modified sequence, Human, SEQ ID No. 90; guide sequence of CR005298 (nucleic acid)
guide: mU*mC*mC*rArCrUrCrArUrUrCrUrUrGrGrCrArGrGrArGrUrUrUrUrArGrAmGmCmUmAmGmAmAmAmUmAmGmCrArArGrUrUrArArArArUrArArGrGrCrUrArGrUrCrCrGrUrUrArUrCrAmAmCmUmUmGmAmAmAmAmAmGmUmGmGmCmAmCmCmGmAmGmUmCmGmGmUmGmCmU*mU*mU*mU
B7: G000484: TTR sgRNA modified sequence, Human, SEQ ID No. 91; guide sequence of CR003367 (nucleic acid)
guide: mA*mG*mA*rCrArCrCrArArArUrCrUrUrArCrUrGrGrArGrUrUrUrUrArGrAmGmCmUmAmGmAmAmAmUmAmGmCrArArGrUrUrArArArArUrArArGrGrCrUrArGrUrCrCrGrUrUrArUrCrAmAmCmUmUmGmAmAmAmAmAmGmUmGmGmCmAmCmCmGmAmGmUmCmGmGmUmGmCmU*mU*mU*mU
B8: G000491: TTR sgRNA modified sequence, Human, SEQ ID No. 98; guide sequence of CR003338 (nucleic acid)
guide: mA*mU*mA*rCrCrArGrUrCrCrArGrCrArArGrGrCrArGrGrUrUrUrUrArGrAmGmCmUmAmGmAmAmAmUmAmGmCrArArGrUrUrArArArArUrArArGrGrCrUrArGrUrCrCrGrUrUrArUrCrAmAmCmUmUmGmAmAmAmAmAmGmUmGmGmCmAmCmCmGmAmGmUmCmGmGmUmGmCmU*mU*mU*mU
B9: G000492: TTR sgRNA modified sequence, Human, SEQ ID No. 99; guide sequence of CR003342 (nucleic acid)
guide: mC*mU*mU*rCrUrCrUrArCrArCrCrCrArGrGrGrCrArCrGrUrUrUrUrArGrAmGmCmUmAmGmAmAmAmUmAmGmCrArArGrUrUrArArArArUrArArGrGrCrUrArGrUrCrCrGrUrUrArUrCrAmAmCmUmUmGmAmAmAmAmAmGmUmGmGmCmAmCmCmGmAmGmUmCmGmGmUmGmCmU*mU*mU*mU
B10: G000498: TTR sgRNA modified sequence, Human, SEQ ID No. 105; guide sequence of CR003359 (nucleic acid)
guide: mA*mG*mU*rGrArGrUrCrUrGrGrArGrArGrCrUrGrCrArGrUrUrUrUrArGrAmGmCmUmAmGmAmAmAmUmAmGmCrArArGrUrUrArArArArUrArArGrGrCrUrArGrUrCrCrGrUrUrArUrCrAmAmCmUmUmGmAmAmAmAmAmGmUmGmGmCmAmCmCmGmAmGmUmCmGmGmUmGmCmU*mU*mU*mU
B11: G000568: TTR sgRNA modified sequence, Human, SEQ ID No. 110; guide sequence of CR003391 (nucleic acid)
guide: mG*mG*mC*rUrGrUrCrGrUrCrArCrCrArArUrCrCrCrArGrUrUrUrUrArGrAmGmCmUmAmGmAmAmAmUmAmGmCrArArGrUrUrArArArArUrArArGrGrCrUrArGrUrCrCrGrUrUrArUrCrAmAmCmUmUmGmAmAmAmAmAmGmUmGmGmCmAmCmCmGmAmGmUmCmGmGmUmGmCmU*mU*mU*mU
B12: G000487: TTR sgRNA modified sequence, Human, SEQ ID No. 94; guide sequence of CR003357 (nucleic acid)
guide: mU*mU*mC*rUrUrUrGrGrCrArArCrUrUrArCrCrCrArGrGrUrUrUrUrArGrAmGmCmUmAmGmAmAmAmUmAmGmCrArArGrUrUrArArArArUrArArGrGrCrUrArGrUrCrCrGrUrUrArUrCrAmAmCmUmUmGmAmAmAmAmAmGmUmGmGmCmAmCmCmGmAmGmUmCmGmGmUmGmCmU*mU*mU*mU
B13: G000572: TTR sgRNA modified sequence, Human, SEQ ID No. 113; guide sequence of CR003385 (nucleic acid)
guide: mC*mC*mC*rCrUrArCrUrCrCrUrArUrUrCrCrArCrCrArGrUrUrUrUrArGrAmGmCmUmAmGmAmAmAmUmAmGmCrArArGrUrUrArArArArUrArArGrGrCrUrArGrUrCrCrGrUrUrArUrCrAmAmCmUmUmGmAmAmAmAmAmGmUmGmGmCmAmCmCmGmAmGmUmCmGmGmUmGmCmU*mU*mU*mU
B14: G000570: TTR sgRNA modified sequence, Human, SEQ ID No. 111; guide sequence of CR003347 (nucleic acid)
guide: mC*mA*mU*rUrGrArUrGrGrCrArGrGrArCrUrGrCrCrUrGrUrUrUrUrArGrAmGmCmUmAmGmAmAmAmUmAmGmCrArArGrUrUrArArArArUrArArGrGrCrUrArGrUrCrCrGrUrUrArUrCrAmAmCmUmUmGmAmAmAmAmAmGmUmGmGmCmAmCmCmGmAmGmUmCmGmGmUmGmCmU*mU*mU*mU
B15: G000501: TTR sgRNA modified sequence, Human, SEQ ID No. 108; guide sequence of CR005300 (nucleic acid)
guide: mU*mC*mA*rCrArGrArArArCrArCrUrCrArCrCrGrUrArGrUrUrUrUrArGrAmGmCmUmAmGmAmAmAmUmAmGmCrArArGrUrUrArArArArUrArArGrGrCrUrArGrUrCrCrGrUrUrArUrCrAmAmCmUmUmGmAmAmAmAmAmGmUmGmGmCmAmCmCmGmAmGmUmCmGmGmUmGmCmU*mU*mU*mU
B16: G000571: TTR sgRNA modified sequence, Human, SEQ ID No. 112; guide sequence of CR005301 (nucleic acid)
guide: mG*mU*mC*rArCrArGrArArArCrArCrUrCrArCrCrGrUrGrUrUrUrUrArGrAmGmCmUmAmGmAmAmAmUmAmGmCrArArGrUrUrArArArArUrArArGrGrCrUrArGrUrCrCrGrUrUrArUrCrAmAmCmUmUmGmAmAmAmAmAmGmUmGmGmCmAmCmCmGmAmGmUmCmGmGmUmGmCmU*mU*mU*mU
B17: G000495: TTR sgRNA modified sequence, Human, SEQ ID No. 102; guide sequence of CR003343 (nucleic acid)
guide: mC*mA*mG*rArGrGrArCrArCrUrUrGrGrArUrUrCrArCrGrUrUrUrUrArGrAmGmCmUmAmGmAmAmAmUmAmGmCrArArGrUrUrArArArArUrArArGrGrCrUrArGrUrCrCrGrUrUrArUrCrAmAmCmUmUmGmAmAmAmAmAmGmUmGmGmCmAmCmCmGmAmGmUmCmGmGmUmGmCmU*mU*mU*mU
B18: G000493: TTR sgRNA modified sequence, Human, SEQ ID No. 100; guide sequence of CR003368 (nucleic acid)
guide: mA*mA*mG*rUrGrCrCrUrUrCrCrArGrUrArArGrArUrUrGrUrUrUrUrArGrAmGmCmUmAmGmAmAmAmUmAmGmCrArArGrUrUrArArArArUrArArGrGrCrUrArGrUrCrCrGrUrUrArUrCrAmAmCmUmUmGmAmAmAmAmAmGmUmGmGmCmAmCmCmGmAmGmUmCmGmGmUmGmCmU*mU*mU*mU
B19: G000567: TTR sgRNA modified sequence, Human, SEQ ID No. 109; guide sequence of CR003352 (nucleic acid)
guide: mG*mA*mA*rArGrGrCrUrGrCrUrGrArUrGrArCrArCrCrGrUrUrUrUrArGrAmGmCmUmAmGmAmAmAmUmAmGmCrArArGrUrUrArArArArUrArArGrGrCrUrArGrUrCrCrGrUrUrArUrCrAmAmCmUmUmGmAmAmAmAmAmGmUmGmGmCmAmCmCmGmAmGmUmCmGmGmUmGmCmU*mU*mU*mU

Key:
TTR = TTR editing in primary human hepatocytes transfected with Spy Cas9 mRNA and dgRNAs (Table 9); assay type: cell-based; settings: dgRNA co-transfected with Spy Cas9 mRNA (SEQ ID NO:2)
Summary of the method: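 PHH sequentially lipofected with Spy Cas9 mRNA (100 ng), then crRNA plus tracrRNA (25 nM each) dual-guide lipoplex. Cells harvested 24, 48 or 72 h post-transfection; TTR target amplicons sequenced on Illumina MiSeq, editing given as percent reads with indels or substitutions over total reads.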

off-target genomic sites = experiment: Off-target oligo insertion based assay in HEK293_Cas9 cells, dgRNAs and sgRNAs (Tables 23, 24); assay type: cell-based, human; settings: for # Sites in HekCas9 cells (Example 5): Table 30, TTR sgRNAs, repeated from Example 5 for comparison
Summary of the method: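 In HEK293 cells constitutively expressing Spy Cas9, crRNA (15 nM) plus trRNA (15 nM), or modified sgRNAs, were lipofected with donor oligo (10 nM). Genomic DNA was collected at 24 h, and oligo-insertion libraries were sequenced on MiSeq/HiSeq to map potential off-target cleavage sites.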

[1] = Table 24, TTR sgRNAs in HekCas9 cells, insertion detection method

| Molecule | Avg % Deletion (TTR) [%] | Avg % Edit (TTR) [%] | Avg % Insert (TTR) [%] | # Sites (off-target integration sites detected) (off-target genomic sites; Table 23, TTR dgRNAs in HekCas9 cells, oligo insertion based assay) | # Sites (off-target integration sites detected) (off-target genomic sites; [1]) | # Sites in HekCas9 cells (Example 5) (off-target genomic sites) |
| --- | --- | --- | --- | --- | --- | --- |
| GUCACAGAAACACUCACCGU (tested as dual guide RNA, chemistry not given here) [CR005301] | 1.40 | 6.77 | 5.47 | 0 | – | – |
| B1 | – | – | – | – | 26 | 26 |
| B2 | – | – | – | – | 12 | 12 |
| B3 | – | – | – | – | 22 | 22 |
| B4 | – | – | – | – | 46 | 46 |
| B5 | – | – | – | – | 1 | 1 |
| B6 | – | – | – | – | 5 | 5 |
| B7 | – | – | – | – | 7 | 7 |
| B8 | – | – | – | – | 28 | 28 |
| B9 | – | – | – | – | 97 | 97 |
| B10 | – | – | – | – | 82 | 82 |
| B11 | – | – | – | – | 937 | 936 |
| B12 | – | – | – | – | 14 | 14 |
| B13 | – | – | – | – | 15 | 15 |
| B14 | – | – | – | – | 19 | 19 |
| B15 | – | – | – | – | 4 | 4 |
| B16 | – | – | – | – | 16 | 16 |
| B17 | – | – | – | – | 13 | 13 |
| B18 | – | – | – | – | 7 | 7 |
| B19 | – | – | – | – | 9 | 9 |
